From patent US20170128554A1 (NEW ENGLAND BIOLABS, published 2017)

What was measured:
[1] = biological target: Sialylglycopeptide (SGP, Fushimi Pharmaceutical Co.); assay: isothermal titration calorimetry, […] (2 M NaCl), […]
[2] = biological target: Sialylglycopeptide (SGP, Fushimi Pharmaceutical Co.); assay: isothermal titration calorimetry, […] (50 mM NaCl), […]
[3] = biological target: T1, SGP-TMR (sialylglycopeptide labeled with two tetramethylrhodamine fluorophores); assay: SGP-TMR pull-down on Fbs beads, low salt volatile buffer, fluorescence
T1 construct: also called sialylated SGP
Protocol: SNAP-Fbs is efficiently conjugated to BG beads (SNAP Capture Pull-Down resin (New England Biolabs, Ipswich, Mass.): SNAP-Fbs protein is reacted with BG beads at 4° C. overnight in a DTT-containing buffer (4 mM DTT, 20 mM tris-HCl pH 7.5, 1 mM EDTA, 50 mM NaCl). After the conjugation reaction, SNAP-Fbs beads are washed with 40× bead volume of low salt buffer.
Fbs binding to complex N-glycan linked glycomolecules is substantially unbiased in a high salt buffer. SGP was labeled with two tetramethylrhodamine (TMR) fluorophores on the peptide portion via lysine residues according to the TMR protein labeling kit protocol (Genaxxon Bioscience, Ulm Germany). After TMR labeling, a fraction of the SGP-TMR sample was processed with neuraminidase (New England Biolabs, Ipswich, Mass.) to remove terminal sialic acid residues. Two binding conditions (LS, low salt buffer and HS, high salt buffer) were tested. […] TMR Fluorescence in the supernatant was measured using a SpectraMax M5 fluorometer (excitation 555 nm and emission 595 nm with 590 nm cutoff). Binding of SGP-TMR to Fbs (y-axis) is determined by subtracting the fluorescence measured in the bead supernatant from the input fluorescence.
SGP-TMR affinity to the Fbs in low salt volatile buffer was analyzed by a pull-down assay using SNAP Capture Pull-Down resin conjugated with equal amounts of WT, GYR or PPRYR Fbs proteins (FIG. 10B). […]

| Binder | Kd [1] [nM] | Kd [2] [nM] | fold increased affinity, against WT Fbs [3] [fold] |
| --- | --- | --- | --- |
| SNAP-Fbs (wild type Fbs sugar binding domain fused to SNAP-tag) (other, also called SNAP-wtFbs; wtFbs) MGSSHHHHHHGDKDCEMKRTTLDSPLGKLELSGCEQGLHEIKLLGKGTSAADAVEVPAPAAVLGGPEPLMQATAWLNAYFHQPEAIEEFPVPALHHPVFQQESFTRQVLWKLLKVVKFGEVISYQQLAALAGNPAATAAVKTALSGNPVPILIPCHRVVSSSGAVGGYEGGLAVKEWLLAHEGHRLGKPGLGPAAIGAPGSGSGSPAGCQQEGLVPEGGVEEERDHWQQFYFLSKRRRNLLRNPCGEEDLEGWCDVEHGGDGWRVEELPGDSGVEFTHDESVKKYFASSFEWCRKAQVIDLQAEGYWEELLDTTQPAIVVKDWYSGRSDAGCLYELTVKLLSEHENVLAEFSSGQVAVPQDSDGGGWMEISHTFTDYGPGVRFVRFEHGGQDSVYWKGWFGARVTNSSVWVEP | 1430 | 3000 | – |
| SNAP-tagged Fbs PPRYR mutant conjugated to BG beads (other) MGSSHHHHHHGDKDCEMKRTTLDSPLGKLELSGCEQGLHEIKLLGKGTSAADAVEVPAPAAVLGGPEPLMQATAWLNAYFHQPEAIEEFPVPALHHPVFQQESFTRQVLWKLLKVVKFGEVISYQQLAALAGNPAATAAVKTALSGNPVPILIPCHRVVSSSGAVGGYEGGLAVKEWLLAHEGHRLGKPGLGPAAIGAPGSGSGSPAGCQQEGLVPEGGVEEERDHWQQFYFLSKRRRNLLRNPCGEEDLEGWCDVEHGGDGWRVEELPGPPRVEFTHDESVKKYFASSYRWCRKAQVIDLQAEGYWEELLDTTQPAIVVKDWYSGRSDAGCLYELTVKLLSEHENVLAEFSSGQVAVPQDSDGGGWMEISHTFTDYGPGVRFVRFEHGGQDSVYWKGWFGARVTNSSVWVEP | – | – | 2 |
| SNAP-tagged Fbs GYR mutant conjugated to BG beads (other, also called S155G+YR) MGSSHHHHHHGDKDCEMKRTTLDSPLGKLELSGCEQGLHEIKLLGKGTSAADAVEVPAPAAVLGGPEPLMQATAWLNAYFHQPEAIEEFPVPALHHPVFQQESFTRQVLWKLLKVVKFGEVISYQQLAALAGNPAATAAVKTALSGNPVPILIPCHRVVSSSGAVGGYEGGLAVKEWLLAHEGHRLGKPGLGPAAIGAPGSGSGSPAGCQQEGLVPEGGVEEERDHWQQFYFLSKRRRNLLRNPCGEEDLEGWCDVEHGGDGWRVEELPGDGGVEFTHDESVKKYFASSYRWCRKAQVIDLQAEGYWEELLDTTQPAIVVKDWYSGRSDAGCLYELTVKLLSEHENVLAEFSSGQVAVPQDSDGGGWMEISHTFTDYGPGVRFVRFEHGGQDSVYWKGWFGARVTNSSVWVEP | – | – | 3 |
